Results published in US20120276119A1 (IMMUNOGEN, published 2012).

T1: Human CD37 (human, UniProt P11049 1-278)
T1 sequence: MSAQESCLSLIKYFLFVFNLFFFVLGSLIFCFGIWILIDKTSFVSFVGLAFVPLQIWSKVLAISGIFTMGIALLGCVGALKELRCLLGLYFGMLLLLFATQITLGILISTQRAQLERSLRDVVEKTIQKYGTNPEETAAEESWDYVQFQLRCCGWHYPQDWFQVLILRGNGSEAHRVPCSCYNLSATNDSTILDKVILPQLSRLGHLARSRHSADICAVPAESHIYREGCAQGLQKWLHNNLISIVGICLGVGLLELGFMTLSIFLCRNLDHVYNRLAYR

T2: Murine CD37 (murine, UniProt Q61470 1-281)
T2 construct: Endogenous muCD37 on 300-19 murine pre-B cells and on wild type mouse spleen B cells; also called muCD37
T2 sequence: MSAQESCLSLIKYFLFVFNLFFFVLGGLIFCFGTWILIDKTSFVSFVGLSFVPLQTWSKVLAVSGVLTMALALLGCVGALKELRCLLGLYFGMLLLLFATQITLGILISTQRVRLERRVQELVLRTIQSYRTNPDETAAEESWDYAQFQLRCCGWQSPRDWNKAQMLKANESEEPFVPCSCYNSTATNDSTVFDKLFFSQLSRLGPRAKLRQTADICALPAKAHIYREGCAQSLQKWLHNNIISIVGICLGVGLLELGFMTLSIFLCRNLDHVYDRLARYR

B1: huCD37-50 (antibody, human IgG1, kappa, V domains shown)
VH: QVQLQESGPGLLKPSQSLSLTCTVSGYSITSGFAWHWIRQHPGNKLEWMGYILYSGSTVYSPSLKSRISITRDTSKNHFFLQLNSVTAADTATYYCARGYYGYGAWFAYWGQGTLVTVSA
VL: EIVLTQSPATMSASPGERVTMTCSATSSVTYMHWYQQKPGQSPKRWIYDTSNLPYGVPARFSGSGSGTSYSLTISSMEAEDAATYYCQQWSDNPPTFGQGTKLEIKR
B2: huCD37-50-SMCC-DM1 (antibody, human IgG1, kappa, V domains shown)
VH: B1 VH
VL: B1 VL
modifications: DM1 maytansinoid linked via SMCC; sites, chain and drug load in the assay not stated
B3: huCD37-3 (antibody, V domains shown)
VH: QVQVQESGPGLVAPSQTLSITCTVSGFSLTTSGVSWVRQPPGKGLEWLGVIWGDGSTNYHPSLKSRLSIKKDHSKSQVFLKLNSLTAADTATYYCAKGGYSLAHWGQGTLVTVSS
VL: DIQMTQSPSSLSVSVGERVTITCRASENIRSNLAWYQQKPGKSPKLLVNVATNLADGVPSRFSGSGSGTDYSLKINSLQPEDFGTYYCQHYWGTTWTFGQGTKLEIKR
B4: huCD37-3-SMCC-DM1 (antibody, V domains shown)
VH: B3 VH
VL: B3 VL
modifications: DM1 maytansinoid linked via SMCC; sites, chain and drug load in the assay not stated
B5: anti-muCD37 monoclonal antibody clone 252-3 (antibody, mouse IgG2a, V domains shown)
VH: EVQVVESGGDLVKPGGSLKLSCAASGFTFSSYGMSWVRQTPDKRLEWVATISSGGSYTYSPDSVKGRFTISRDNAKKTLYLQMSSLKSEDTAMYYCARHSYYDTSVDYWGQGTSVTVSS
VL: DIQMTQTTSSLSASLGDRVTISCRASQDISNYLNWYQQKPDGTVKLLIYYTSKLHSGVPSRFSGSGSGTDYSLTISNLEQEDIATYFCQQGNALPWTFGGGTKLELKR

What was measured:
Human CD37 [1] = biological target: T1, Human CD37; test: cell-based or functional assay
Human CD37 [2] = biological target: T1, Human CD37; test: flow cytometry on human tumor cells expressing human CD37
Murine CD37 = biological target: T2, Murine CD37; test: flow cytometry titration on 300-19 murine pre-B cells expressing muCD37; anti-muIgG-PE detection; EC50 of the curve taken as the apparent Kd
Method: Cells were then washed and counterstained with anti muIgG-PE conjugate (Jackson Immunoresearch, West Grove, Pa.) for 30 minutes at 4° C. The cells were finally washed, fixed in formalin and analyzed by flow cytometry using a FACSarray (BD Bioscience, San Jose, Calif.). The flow cytometry data were analyzed using FlowJo (Tree Star Inc., Ashland, Oreg.) and the geometric mean fluorescence intensity was plotted against the antibody concentration in a semi-log plot (FIG. 8). A dose-response curve was generated by non-linear regression and the EC50 value of the curve, which corresponds to the apparent dissociation constant (Kd) of the antibody, was calculated using GraphPad Prism (GraphPad Software Inc., La Jolla, Calif.).

Row | Binder | in vitro depletion of B-cells, whole human blood, 10 µg/mL, one donor (Human CD37 [1]) [%] | EC50 of in vitro B-cell depletion, purified human PBMCs, two donors (Human CD37 [1]) [µg/mL] | binding result (Human CD37 [2]) | Kd (Murine CD37) [nM]
1 | B1 | ~40 |  |  | 
2 | B2 | ~40 |  |  | 
3 | B3 | ~40 |  |  | 
4 | B4 | ~40 | 0.04 to 0.075 |  | 
5 | B5 |  |  | no binding | 14
